# Measured values as given in publication PMC10382678, “The collagen ColQ binds to LRP4 and regulates the activation of the Muscle-Specific Kinase–LRP4 receptor complex by agrin at the neuromuscular junction” (The Journal of Biological Chemistry, 2023).
# Columns and labels:
# [1] = molecular target: the molecule itself; test: co-sedimentation; extracts (0.8 M NaCl, 1% CHAPS) of HEK 293T cells cotransfected with ColQ-Flag and AChE, run on 5 to 20% sucrose gradients with 0.8 M NaCl, 10 mM EDTA, 0.2% Brij-97; fractions assayed for AChE activity; profile not shown
# [2] = molecular target: T1, purified recombinant mouse ectoLRP4 His-tag (R&D Systems) (mouse, UniProt Q8VI56 21-1725); test: SPR; same ColQ-Flag surface; single-cycle kinetics with purified ectoLRP4-His at 296, 444, 666, 1000 and 1500 nM, 5 μl/min, 3 min association, 5 min dissociation, no regeneration; HBS-EP; 1:1 binding model with drifting baseline; n = 2; details: one partner purified
# T1 construct: low-density lipoprotein receptor-related protein 4, mouse, ectodomain; also called purified ectoLRP4; source: bought: R&D Systems
# T1 sequence (Q8VI56 21-1725): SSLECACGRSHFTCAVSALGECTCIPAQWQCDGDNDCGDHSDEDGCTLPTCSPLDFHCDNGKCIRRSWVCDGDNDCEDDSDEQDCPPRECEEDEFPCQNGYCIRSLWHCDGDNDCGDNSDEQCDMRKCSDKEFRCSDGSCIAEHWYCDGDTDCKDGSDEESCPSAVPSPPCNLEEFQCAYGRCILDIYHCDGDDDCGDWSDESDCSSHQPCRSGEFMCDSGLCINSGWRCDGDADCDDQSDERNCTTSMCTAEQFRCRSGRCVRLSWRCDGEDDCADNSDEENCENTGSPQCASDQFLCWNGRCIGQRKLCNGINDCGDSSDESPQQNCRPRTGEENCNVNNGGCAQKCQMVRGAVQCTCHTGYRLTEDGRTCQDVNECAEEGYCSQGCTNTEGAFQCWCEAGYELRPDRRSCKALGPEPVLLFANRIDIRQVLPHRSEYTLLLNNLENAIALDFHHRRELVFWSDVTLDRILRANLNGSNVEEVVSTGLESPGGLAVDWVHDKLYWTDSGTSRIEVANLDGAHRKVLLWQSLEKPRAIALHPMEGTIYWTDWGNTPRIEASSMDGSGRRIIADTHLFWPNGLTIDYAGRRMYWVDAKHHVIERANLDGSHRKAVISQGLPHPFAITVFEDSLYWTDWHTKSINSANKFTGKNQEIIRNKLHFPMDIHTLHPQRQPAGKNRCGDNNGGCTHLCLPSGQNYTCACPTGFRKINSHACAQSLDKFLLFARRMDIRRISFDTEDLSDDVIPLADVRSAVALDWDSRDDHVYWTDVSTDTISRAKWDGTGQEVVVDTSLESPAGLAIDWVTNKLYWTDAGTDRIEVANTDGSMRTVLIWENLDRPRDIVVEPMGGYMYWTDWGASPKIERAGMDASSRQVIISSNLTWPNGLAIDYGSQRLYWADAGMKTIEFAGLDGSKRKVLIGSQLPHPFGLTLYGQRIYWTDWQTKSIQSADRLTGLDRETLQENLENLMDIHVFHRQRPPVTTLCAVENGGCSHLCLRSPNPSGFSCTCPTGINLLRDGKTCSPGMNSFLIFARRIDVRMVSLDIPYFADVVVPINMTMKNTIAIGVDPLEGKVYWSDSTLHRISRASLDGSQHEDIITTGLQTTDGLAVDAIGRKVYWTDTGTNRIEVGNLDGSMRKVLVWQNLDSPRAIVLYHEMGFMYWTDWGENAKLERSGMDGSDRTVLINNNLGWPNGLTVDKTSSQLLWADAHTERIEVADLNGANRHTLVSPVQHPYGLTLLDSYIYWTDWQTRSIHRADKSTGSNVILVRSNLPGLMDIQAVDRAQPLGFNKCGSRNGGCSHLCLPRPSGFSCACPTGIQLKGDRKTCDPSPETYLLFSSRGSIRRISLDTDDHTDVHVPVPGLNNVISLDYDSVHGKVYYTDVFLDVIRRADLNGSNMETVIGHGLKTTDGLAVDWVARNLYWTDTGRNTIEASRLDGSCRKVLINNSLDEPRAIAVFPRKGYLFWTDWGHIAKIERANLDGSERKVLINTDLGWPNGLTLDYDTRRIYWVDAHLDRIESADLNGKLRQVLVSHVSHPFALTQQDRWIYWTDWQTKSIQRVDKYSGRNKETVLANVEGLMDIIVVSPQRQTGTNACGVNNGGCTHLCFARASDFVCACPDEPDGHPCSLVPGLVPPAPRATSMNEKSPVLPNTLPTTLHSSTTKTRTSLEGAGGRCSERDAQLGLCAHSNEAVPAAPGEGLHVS
binder,measurement,setting,value
"ColQ-Flag (rat collagen Q, ColQ1a, with a Flag epitope after amino acid 26) (natural protein, UniProt O35167 23-458, looked up, Never purified on its own, only immunocaptured from lysates; source: captured from the lysate on anti-Flag beads, wells or sensor chip; not shown: Flag, internal (after residue 26), kept) QPTFINSVLPISAALPGLDQKKRGNHKACCLLMPPPPPLFPPPFFRGSRSPLLSPDMKNLLELEASPSPCMQGSLGSPGPPGPQGPPGLPGKAGPKGEKGDLGRPGRKGRPGPPGVPGEPGPVGWPGPEGPRGEKGDVGMMGLPGSRGPMGSKGFPGSRGEKGSRGERGDLGPKGEKGFPGFPGMLGQKGEMGPKGESGIAGHRGPTGRPGKRGKQGQKGDSGIMGPPGKPGPSGQPGRQGPPGPPGPPSAGQLVMGLKGERGFPGPPGRCLCGPPANVNNPSYGDPMYGRGSPRVPAIFVVNNQEELEKLNTQNAIAFRRDQRSLYFKDSLGWLPIQLTPFYPVGLHHKAAWHLCGDGVLQPGEECDDGNPDVSDGCIDCHRAYCGDGYRHRGVEDCDGSDFGYLKCETYLPGSYGELRCTQYCSIDSTPCRYFT",stoichiometry N,[1],3
same,Kd,[2],94 nM
same,koff,[2],0.0091 s⁻¹
same,kon,[2],96400 M⁻¹ s⁻¹
